Experimental findings from IntAct's records for PubMed 22484091 are described below.

Experiment [1] has as its target brox_human BROX (UniProt Q5VW32).
Experiment [2] shares this target. The source holds these as a separate data set.

brox_human BROX, sequence (Q5VW32 whole entry): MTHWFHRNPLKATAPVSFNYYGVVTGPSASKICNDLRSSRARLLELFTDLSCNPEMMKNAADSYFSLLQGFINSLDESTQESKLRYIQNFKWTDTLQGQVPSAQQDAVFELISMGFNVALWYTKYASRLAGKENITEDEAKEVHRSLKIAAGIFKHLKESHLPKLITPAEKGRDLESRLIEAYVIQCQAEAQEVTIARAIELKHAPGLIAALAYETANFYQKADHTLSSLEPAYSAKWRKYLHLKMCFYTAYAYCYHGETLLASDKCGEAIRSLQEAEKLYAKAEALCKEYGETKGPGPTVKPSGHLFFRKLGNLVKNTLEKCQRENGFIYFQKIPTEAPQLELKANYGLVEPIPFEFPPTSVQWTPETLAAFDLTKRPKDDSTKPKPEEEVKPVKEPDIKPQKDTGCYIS
Charged multivesicular body protein 5 (Homo sapiens), Q9NZZ3-1 F211A, sequence (Q9NZZ3 whole entry F211A): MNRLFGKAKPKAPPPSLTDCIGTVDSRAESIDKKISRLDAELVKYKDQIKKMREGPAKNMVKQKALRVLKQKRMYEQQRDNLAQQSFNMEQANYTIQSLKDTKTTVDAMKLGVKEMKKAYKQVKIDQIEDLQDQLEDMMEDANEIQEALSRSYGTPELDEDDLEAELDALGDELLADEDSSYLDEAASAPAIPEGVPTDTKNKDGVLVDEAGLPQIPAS
Charged multivesicular body protein 5 (Homo sapiens), Q9NZZ3-1 P214G, sequence (Q9NZZ3 whole entry P214G): as the sequence (Q9NZZ3 whole entry F211A) above, with A211F, P214G counted along it
Charged multivesicular body protein 5 (Homo sapiens), Q9NZZ3-1 L213A, sequence (Q9NZZ3 whole entry L213A): as the sequence (Q9NZZ3 whole entry F211A) above, with A211F, L213A counted along it

“Charged multivesicular body protein 5 (Homo sapiens), Q9NZZ3-1 F211A”: the “effect of a mutation on the interaction” value in experiment [1] is given as “decreasing interaction strength”; in experiment [2], “disrupting interaction strength”.

Regarding “Charged multivesicular body protein 5 (Homo sapiens), Q9NZZ3-1 L213A”, in experiment [1], the “effect of a mutation on the interaction” value is “disrupting interaction strength”. Turning to “Charged multivesicular body protein 5 (Homo sapiens), Q9NZZ3-1 P214G”, the “effect of a mutation on the interaction” value in experiment [1] is recorded as “decreasing interaction strength”; in experiment [2], “disrupting interaction strength”.
